# Test results reported in CN109384844A (INST OF BASIC MEDICAL SCIENCES THE ACADEMY OF MILITARY …, dated 2019).
# B1: AAH-1抗体 (antibody, V domains shown)
# VH: QMQLVQSGAEIRRPGSLVKVSCQASGGSFKNFALNWVRQAPGLGLQWMGSITPFLNVPTYAQQFQGRVTMSTDTSTSTAYMVLRRLTSDDTAVYYCARGNSLLDYWGQGTLVTVSS
# VL: EIVLTQSPATLSVSPGDGATLSCRASQSVSGNLAWYQKKPGQAPRLLIYDTSIRAAGVPPRFSGSGSGTEFTLTISSLQSEDFAVYYCQQYHNLPPLTFGPGTKLEIK
# Tests used:
# [1] = molecular target: T1, Hla蛋白 (Staphylococcus aureus)
# [2] = molecular target: T1, Hla蛋白; remark: listed apart in the source
# T1 sequence (Q2G1X0 27-319 limits assumed): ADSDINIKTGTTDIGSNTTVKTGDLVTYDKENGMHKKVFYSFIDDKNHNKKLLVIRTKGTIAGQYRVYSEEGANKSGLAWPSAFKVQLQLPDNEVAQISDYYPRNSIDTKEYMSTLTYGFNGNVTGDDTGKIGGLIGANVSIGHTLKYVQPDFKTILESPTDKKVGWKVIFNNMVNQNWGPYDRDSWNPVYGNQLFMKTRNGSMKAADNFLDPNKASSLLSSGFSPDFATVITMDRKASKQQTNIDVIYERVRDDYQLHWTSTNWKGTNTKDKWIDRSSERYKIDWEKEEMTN
binder,measurement,setting,value
B1,Kd,[1],1.92 nM
same,koff,[1],0.000255 s⁻¹
same,kon,[1],133000 M⁻¹ s⁻¹
same,EC50,[2],0.075 µg/mL
